Experiment [1] has as its target T1, SdrF N1N2N3 (52-679), His-tagged recombinant A domain of S. epidermidis SdrF (Staphylococcus epidermidis (K28 genomic …, UniProt Q9KI14 53-678)).
T1 construct: expressed in E. coli; also called SdrF A domain
T1 sequence: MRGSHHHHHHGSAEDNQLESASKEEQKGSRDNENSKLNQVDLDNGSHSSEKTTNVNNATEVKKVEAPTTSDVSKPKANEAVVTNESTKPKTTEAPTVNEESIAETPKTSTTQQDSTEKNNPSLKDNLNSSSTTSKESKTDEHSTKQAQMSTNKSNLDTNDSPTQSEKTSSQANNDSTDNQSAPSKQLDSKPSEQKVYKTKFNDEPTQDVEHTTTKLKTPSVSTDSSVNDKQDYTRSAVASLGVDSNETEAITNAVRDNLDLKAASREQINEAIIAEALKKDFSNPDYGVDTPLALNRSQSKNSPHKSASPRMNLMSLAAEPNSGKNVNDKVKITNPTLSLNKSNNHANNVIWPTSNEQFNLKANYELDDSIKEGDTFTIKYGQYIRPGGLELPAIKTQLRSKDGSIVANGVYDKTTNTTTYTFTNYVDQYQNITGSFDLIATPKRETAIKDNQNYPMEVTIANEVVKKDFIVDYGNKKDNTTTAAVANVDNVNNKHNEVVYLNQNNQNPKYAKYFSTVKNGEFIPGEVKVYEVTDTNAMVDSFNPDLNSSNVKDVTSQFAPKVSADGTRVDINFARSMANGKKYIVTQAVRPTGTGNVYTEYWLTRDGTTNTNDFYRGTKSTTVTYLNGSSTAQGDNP
Description: ELISA, plate coated with SdrF N1N2N3, hybridoma supernatant. Background: In an ELISA, binding on a coated surface is turned into a signal by an enzyme label.

Experiment [2] concerns the target T1, SdrF N1N2N3 (52-679), His-tagged …. Description: Biacore 3000, mAb captured on anti-F(ab)2 chip, SdrF (N1N2N3) in flow. In general terms: Surface plasmon resonance follows binding to a sensor surface in real time, without labels.
For experiment [3] the target is unchanged. Briefly: Biacore, mAb captured via RAM-Fc, SdrF injected.
Experiment [4] shares this target. Description: Biacore 3000, ligand capture of mAb, SdrF (N1N2N3) in flow.
For experiment [5], the target named is T2, SdrF N2N3 (361-679), His-tagged recombinant fragment (Staphylococcus epidermidis (K28 genomic …, UniProt Q9KI14 361-678)).
T2 construct: expressed in E. coli
T2 sequence: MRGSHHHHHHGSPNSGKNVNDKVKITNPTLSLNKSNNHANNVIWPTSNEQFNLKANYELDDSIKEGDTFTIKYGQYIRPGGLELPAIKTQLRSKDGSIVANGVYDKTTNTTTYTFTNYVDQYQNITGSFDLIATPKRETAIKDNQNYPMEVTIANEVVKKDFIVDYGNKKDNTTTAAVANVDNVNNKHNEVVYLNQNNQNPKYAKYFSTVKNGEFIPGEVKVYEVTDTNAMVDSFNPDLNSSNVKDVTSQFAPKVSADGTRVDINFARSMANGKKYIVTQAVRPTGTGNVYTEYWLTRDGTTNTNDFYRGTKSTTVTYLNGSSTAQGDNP
Description: ELISA, plate coated with SdrF N2N3, hybridoma supernatant.

The target in experiment [6] is T3, SdrF N3 (517-679), His-tagged recombinant fragment (Staphylococcus epidermidis (K28 genomic …, UniProt Q9KI14 517-678)).
T3 construct: expressed in E. coli
T3 sequence: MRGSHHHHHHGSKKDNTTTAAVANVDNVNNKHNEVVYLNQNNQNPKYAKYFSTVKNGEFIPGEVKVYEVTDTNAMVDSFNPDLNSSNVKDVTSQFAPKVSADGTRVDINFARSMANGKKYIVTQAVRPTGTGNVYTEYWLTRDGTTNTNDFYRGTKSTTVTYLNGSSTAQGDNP
Briefly: ELISA, plate coated with SdrF N3.

Experiment [7] concerns the target T4, SdrF N2 (361-517), His-tagged recombinant fragment (Staphylococcus epidermidis (K28 genomic …, UniProt Q8CMP4 361-517)).
T4 construct: expressed in E. coli
T4 sequence: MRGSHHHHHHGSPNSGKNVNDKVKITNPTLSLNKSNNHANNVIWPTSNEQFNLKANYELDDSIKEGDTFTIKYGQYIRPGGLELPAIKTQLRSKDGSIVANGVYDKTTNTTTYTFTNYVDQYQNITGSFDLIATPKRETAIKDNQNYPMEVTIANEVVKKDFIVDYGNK
Description: ELISA, plate coated with SdrF N2.

B1: murine anti-SdrF monoclonal antibody 108-1 (antibody, V domains shown)
VH: EVQLQQSGAELVKPGASVKLSCTASGFNIKDTYIHWVKQRPEQGLEWIGRIDPANGNTHYDSQFQGKATITADTSSNTAYLQLSSLTSDDTAVYYCTRRVGYAMDYWGQGTSVTVSS
VL: DIVMTQSHKFMSTSVGDRVIITCKASQDVNTALAWYQQKPGQSPKLLIYSASYRYTGVPDRFTGSGSGTDFTFTISSVQAEDLAVYYCQQHYSTPPYTFGGGTKLEIK
notes: Mouse hybridoma antibody (Balb/C, fusion F108)
Regarding B1, the “ELISA OD405” value in experiment [1] amounted to 0.89 OD405. In experiment [2], the Ka was 6.2e+08 M⁻¹, the Kd was 1.61 nM, the koff worked out at 0.000134 s⁻¹ and the on-rate constant (kon) turned out to be 82900 M⁻¹ s⁻¹. Moreover, the “Biacore SdrF bound” value in experiment [3] came to 146. Further, in experiment [4], the Ka amounted to 6.2e+08 M⁻¹, the Kd amounted to 1.6 nM, the koff worked out at 0.00013 s⁻¹ and the kon amounted to 83000 M⁻¹ s⁻¹. For the same molecule, in experiment [5], the “ELISA OD405” value was 0.99 OD405.

B2: Humanized 108-1 (antibody, V domains shown)
VH: QVQLVQSGAEVVKPGASVKLSCKASGFNIKDTYIHWVKQRPGQGLEWIGRIDPANGNTHYDSQFQGKATITADTSTSTAYLQLSSLRSEDTAVYYCTRRVGYAMDYWGQGTTVTVSS
VL: DIVMTQSQKFMSTSVGDRVTITCKASQDVNTALAWYQQKPGQSPKLLIYSASYRYTGVPSRFSGSGSGTDFTFTISSVQAEDLAVYYCQQHYSTPPYTFGGGTKLEIK
notes: Humanized (veneered) variable regions spliced into plasmids with 'the appropriate light or heavy chain constant region', expressed in NSO cells
For B2, in experiment [4], the Ka was 5.6e+08 M⁻¹, the Kd was found to be 1.8 nM, the koff turned out to be 0.00017 s⁻¹ and the association rate constant (kon) was 94000 M⁻¹ s⁻¹.

B3: Humanized 110-15 (antibody, V domains shown)
VH: EVQLVESGGGLVQPGGSLKLSCAASGFAFSSYDMSWVRQTPEKRLEWVAYISSGGGITYYPDTVKGRFTISRDNSKNTLYVQMSSLRAEDTAVYYCTRHDRDSWFAYWGQGTLVTVSS
VL: EIVLTQSPGTMSASPGERGTMSCSASSSVRYMYWYRQKPGQSPRLLIYDTSNLASGVPARFSGSGSGTSYSLTISRMEAEDAATYYCQQWSSYPPTFGGGTKLEMK
notes: Humanized (veneered) variable regions with 'the appropriate light or heavy chain constant region', expressed in NSO cells; also called 110-15VL-Hu/110-15VH-Hu
For the molecule B3, in experiment [4], the Ka stood at 1.4e+09 M⁻¹, the Kd is 0.74 nM, the koff worked out at 0.00013 s⁻¹ and the on-rate (kon) turned out to be 170000 M⁻¹ s⁻¹.

B4: murine anti-SdrF monoclonal antibody 108-36 (antibody, V domains shown)
VH: QVTLRESGPGILQPSQTLSLTCSFSGFSLNTSGMGVTWIRQPSGKGLEWLANIYWDDDKRYNPSLKSRLTISKANSRNQVFLKITSVDTADTATYYCTRPNYLGTVYWYFDVWGAGTMVTVSS
VL: QIVLTQSPAIMSASPGEKVTMTCSASSSVSYMYWYQQKPGSSPRVLIYDTSNLASGVPVRFSGSGSGTSYSLTISRMEAEDAATYYCQQWNGYPPTFGAGTKLEVK
notes: Mouse hybridoma antibody (fusion F108)
B4: the binding result in experiment [6] is “no binding”. In addition, the “ELISA OD405” value in experiment [1] turned out to be 0.77 OD405. In experiment [2], the Ka stood at 4.52e+09 M⁻¹, the Kd came out at 0.221 nM, the koff is 5.6e-05 s⁻¹ and the on-rate constant (kon) is 232000 M⁻¹ s⁻¹. In addition, in experiment [3], the “Biacore SdrF bound” value worked out at 146. Besides, in experiment [4], the Ka was determined as 4.5e+09 M⁻¹, the Kd was determined as 0.22 nM, the koff came to 5.6e-05 s⁻¹ and the kon was determined as 230000 M⁻¹ s⁻¹. Further, in experiment [5], the “ELISA OD405” value was found to be 0.72 OD405.

B5: Humanized 108-36 (antibody, V domains shown)
VH: QVTLRESGPGILKPSQTLSLTCTFSGFSLNTSGMGVTWIRQPSGKGLEWLANIYWDDDKRYNPSLKSRLTISKANSRNQVFLKITSVDPVDTATYYCTRPNYLGTVYWYFDVWGQGTMVTVSS
VL: EIVLTQSPATMSASPGERVTMSCSASSSVSYMYWYQQKPGQSPRVLIYDTSNLASGVPSRFSGSGSGTSYSLTISSMEPEDAATYYCQQWNGYPPTFGGGTKLEVK
modifications: N-linked carbohydrate chain on the asparagine at position 30 of the variable heavy chain
notes: Humanized (veneered) variable regions with 'the appropriate light or heavy chain constant region', expressed in NSO cells; also called Hu108-36
In the case of B5, in experiment [4], the Ka worked out at 2.2e+09 M⁻¹, the Kd turned out to be 0.46 nM, the koff stood at 6.3e-05 s⁻¹ and the kon came to 140000 M⁻¹ s⁻¹.

B6: murine anti-SdrF monoclonal antibody 110-15 (antibody, V domains shown)
VH: EVQLVESGGGLVKPGGSLKLSCAASGFAFSSYDMSWVRQTPEKRLEWVAYISSGGGITYYPDTVKGRFTISRDNAKNTLYVQMSSLKSEDTAIYYCTRHDRDSWFAYWGQGTLVTVSA
VL: QIVLTQSPAIMSASPGEEGTMTCSASSSVRYMYWYRQKPGSSPRLLIYDTSNLASGVPVRFSGSGSGTSYSLTISRMEAEDAATYYCQQWSSYPPTFGGGTKLEMK
notes: Mouse hybridoma antibody (fusion F110); also called Murine 110-15; 110-15VL-Mouse/110-15VH-Mouse
Consider B6, for which the binding result in experiment [6] and in experiment [7] was “no binding” each time. Moreover, the “ELISA OD405” value in experiment [1] was found to be 0.63 OD405; in experiment [5], 0.7 OD405. Further, the Ka in experiment [2] amounted to 1.29e+09 M⁻¹; in experiment [4], 1.3e+08 M⁻¹. The Kd in experiment [2] worked out at 0.774 nM; in experiment [4], 0.77 nM. Moreover, the koff was 0.000164 s⁻¹ in experiment [2] and 0.00016 s⁻¹ in experiment [4]. The association rate constant (kon) came to 212000 M⁻¹ s⁻¹ in experiment [2] and 210000 M⁻¹ s⁻¹ in experiment [4]. Besides, the “Biacore SdrF bound” value in experiment [3] worked out at 153.

The Kd is the equilibrium constant for the complex coming apart. One may read the koff as a measure of how fast the partners let go of each other. In general, kon refers to a measure of how fast the partners come together.
